Here are results for six molecules from patent US20200040059A1.

Substitutions are numbered along the chain they refer to. In names and notes the source's numbering stands.

The target of assay [1] is CD112R, expressed on transfected cells (human) (UniProt Q6DKI7). The assay can be described thus: flow cytometry on transfected cells.
Assay [2] deals with T1, human TIGIT, full length, expressed on transfected cells (human) (UniProt Q495A1).
T1 sequence: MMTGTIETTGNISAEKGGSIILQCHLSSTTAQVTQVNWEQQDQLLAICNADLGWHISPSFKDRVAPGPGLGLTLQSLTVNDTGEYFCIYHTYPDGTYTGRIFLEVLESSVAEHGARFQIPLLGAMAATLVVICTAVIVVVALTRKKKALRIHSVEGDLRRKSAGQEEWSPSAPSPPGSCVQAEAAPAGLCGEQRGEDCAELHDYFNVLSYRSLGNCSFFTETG
The assay can be described thus: flow cytometry on transfected cells.

Assay [3] deals with CD96, expressed on transfected cells (UniProt P40200). The assay can be described thus: flow cytometry on transfected cells.
The target of assay [4] is T2, TIGIT (human) (UniProt Q495A1).
T2 sequence: T1 sequence
The assay can be described thus: flow cytometry, TIGIT-expressing cells.

The target of assay [5] is T2, TIGIT (human). The assay can be described thus: flow cytometry, transfected cells.
Another assay deals with T3, CD226 (human) (UniProt Q15762).
T3 sequence: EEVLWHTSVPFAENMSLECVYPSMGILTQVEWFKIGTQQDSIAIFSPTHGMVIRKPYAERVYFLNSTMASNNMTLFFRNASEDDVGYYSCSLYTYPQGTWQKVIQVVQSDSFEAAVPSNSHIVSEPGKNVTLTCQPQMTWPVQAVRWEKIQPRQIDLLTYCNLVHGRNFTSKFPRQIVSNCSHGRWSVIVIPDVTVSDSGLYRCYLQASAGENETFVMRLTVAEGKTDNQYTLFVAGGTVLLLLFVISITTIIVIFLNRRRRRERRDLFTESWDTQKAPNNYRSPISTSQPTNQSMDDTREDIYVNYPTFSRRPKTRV
The assay can be described thus: flow cytometry, transfected cells.

For a further assay, the target named is T4, CD96 (UniProt P40200).
T4 sequence (looked up): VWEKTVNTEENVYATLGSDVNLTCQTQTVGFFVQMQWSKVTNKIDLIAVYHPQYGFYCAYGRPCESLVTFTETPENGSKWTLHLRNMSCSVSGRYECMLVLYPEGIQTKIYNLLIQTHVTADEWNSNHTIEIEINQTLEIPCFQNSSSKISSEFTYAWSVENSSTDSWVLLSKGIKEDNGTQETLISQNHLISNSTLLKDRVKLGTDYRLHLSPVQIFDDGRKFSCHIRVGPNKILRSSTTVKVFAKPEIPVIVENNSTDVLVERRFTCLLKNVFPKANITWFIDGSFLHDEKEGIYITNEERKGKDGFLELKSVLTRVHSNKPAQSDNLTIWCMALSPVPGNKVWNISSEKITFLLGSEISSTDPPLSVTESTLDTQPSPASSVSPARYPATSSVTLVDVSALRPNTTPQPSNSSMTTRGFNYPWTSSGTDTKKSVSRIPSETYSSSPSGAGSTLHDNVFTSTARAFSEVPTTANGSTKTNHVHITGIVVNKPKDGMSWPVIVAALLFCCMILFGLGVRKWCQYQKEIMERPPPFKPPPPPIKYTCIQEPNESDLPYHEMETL
The assay can be described thus: flow cytometry, cells.

Assay [6] deals with human ICOS as used for the 'ICOS OD' read-out of Table 14 (human). The assay can be described thus: binding read as OD; format not described.
Assay [7] deals with human CD28, full-length, expressed on transfected Expi293 cells (human) (UniProt P10747). The assay can be described thus: flow cytometry on CD28-expressing Expi293 cells.
For assay [8], the target named is T5, CD112R (full length, expressed on transfected cells) (human), Q6DKI7.
T5 chain: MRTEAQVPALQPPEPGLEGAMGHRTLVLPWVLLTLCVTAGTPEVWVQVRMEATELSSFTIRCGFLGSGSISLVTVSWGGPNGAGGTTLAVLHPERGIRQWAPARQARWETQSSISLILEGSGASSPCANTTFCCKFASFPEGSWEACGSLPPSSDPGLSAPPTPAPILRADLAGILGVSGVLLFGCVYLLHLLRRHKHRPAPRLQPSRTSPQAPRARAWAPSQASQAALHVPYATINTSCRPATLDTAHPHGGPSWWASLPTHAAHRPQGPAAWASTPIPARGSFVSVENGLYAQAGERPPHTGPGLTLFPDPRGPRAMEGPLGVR
The assay can be described thus: flow cytometry on cells expressing the target, 20 nM. As to conditions: remark: other sources report otherwise.

Assay [9] deals with T5, CD112R (full length, expressed on …). The assay can be described thus: flow cytometry, 20 nM; ratio to WT CD112 IgV-Fc. As to conditions: remark: other sources report otherwise.

Sequence of human ICOS as used for the 'ICOS OD' read-out of Table 14 (human) (Q9Y6W8 whole entry): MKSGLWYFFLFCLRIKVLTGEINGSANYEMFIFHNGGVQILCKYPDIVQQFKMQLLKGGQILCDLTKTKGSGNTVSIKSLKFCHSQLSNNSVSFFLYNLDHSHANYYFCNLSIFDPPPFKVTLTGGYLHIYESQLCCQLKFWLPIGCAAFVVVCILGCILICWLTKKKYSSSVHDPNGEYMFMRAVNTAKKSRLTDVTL

B1: CD155 variant T45Q, S52M, L104E IgV-Fc (Fc fusion, not shown: a dimerising Fc or GST; small tags and cut ends)
chain: PGTGDVVVQAPTQVPGFLGDSVTLPCYLQVPNMEVTHVSQLQWARHGEMGSMAVFHQTQGPSYSESKRLEFVAARLGAELRNASLRMFGLRVEDEGNYTCEFVTFPQGSRSVDIWL
On to B1, for which the MFI at 100 nM in assay [1] was 2600; in assay [2] it was 79500; in [3] it was 6310.

B2: CD155 variant IgV-Fc P18S, S42G, T45V, F58L, S67W, L104N (Fc fusion, not shown: a dimerising Fc or GST; large carriers; small tags and cut ends)
chain: B1 chain with P15S, S39G, Q42V, M49S, F55L, S64W, E101N
Regarding B2, the MFI at 100 nM in the assay with TIGIT (human) [4] is 14100 MFI.

B3: CD155 variant T45Q, S52R, L104E IgV-Fc (Fc fusion, not shown: a dimerising Fc or GST; small tags and cut ends)
chain: B1 chain with M49R
Regarding B3, the MFI at 100 nM in [1] worked out at 2620; in assay [2], 122000; in assay [3] it was 3750.

B4: CD155 G7E, P18T, Y30C, F91S IgV-Fc (Fc fusion, not shown: a dimerising Fc or GST; small tags and cut ends)
chain: B1 chain with G4E, P15T, Y27C, Q42T, M49S, F88S, E101L
With B4, the MFI in the assay with TIGIT (human) [5] came to 13000; with CD226 (human) it was 12900; in the assay with CD96, 7910.

B5: ICOSL variant N52S/T113E ECD-Fc fusion (Fc fusion, UniProt O75144 19-256 with N52S T113E, looked up, part only)
extracellular domain: DTQEKEVRAMVGSDVELSCACPEGSRFDLNDVYVYWQTSESKTVVTYHIPQSSSLENVDSRYRNRALMSPAGMLRGDFSLRLFNVTPQDEQKFHCLVLSQSLGFQEVLSVEVELHVAANFSVPVVSAPHSPSQDELTFTCTSINGYPRPNVYWINKTDNSLLDQALQNDTVFLNMRGLYDVVSVLRIARTPSVNIGCCIENVLLQQNLTVGSQTGNDIGERDKITENPVSTGEKNAAT
modifications: extracellular domain human IgG1 Fc fusion
B5: the ICOS OD parental ratio (ratio to WT ICOSL ECD-Fc) in [6] stood at 1.76. Moreover, in [7], the MFI turned out to be 54 MFI and the MFI parental ratio (ratio to WT ICOSL ECD-Fc) turned out to be 3.

B6: WT CD112-Fc ECD, Q92692 32-360 (Fc fusion, not shown: a dimerising Fc or GST; small tags and cut ends)
chain: QDVRVQVLPEVRGQLGGTVELPCHLLPPVPGLYISLVTWQRPDAPANHQNVAAFHPKMGPSFPSPKPGSERLSFVSAKQSTGQDTEAELQDATLALHGLTVEDEGNYTCEFATFPKGSVRGMTWLRVIAKPKNQAEAQKVTFSQDPTTVALCISKEGRPPARISWLSSLDWEAKETQVSGTLAGTVTVTSRFTLVPSGRADGVTVTCKVEHESFEEPALIPVTLSVRYPPEVSISGYDDNWYLGRTDATLSCDVRSNPEPTGYDWSTTSGTFPTSAVAQGSQLVIHAVDSLFNTTFVCTVTNAVGMGRAEQVIFVRETPNTAGAGATGG
B6 showed an MFI at 20 nM in assay [8] of 1250. Besides, in assay [9], the Fold Increase to WT IgV was 0.75 fold.
